According to paper PMC8835488, “Production and Biochemical Characterization of Dimeric Recombinant Gremlin-1” (International Journal of Molecular Sciences, 2022):
Substitutions are numbered along the chain they refer to.

B1: recombinant rat gremlin-1 with C-terminal hexa-histidine tag (pcDNA3-Gremlin-1-HisTag) (natural protein, UniProt O35793 25-184, looked up)
chain: KKKGSQGAIPPPDKAQHNDSEQTQSPPQPGSRTRGRGQGRGTAMPGEEVLESSQEALHVTERKYLKRDWCKTQPLKQTIHEEGCNSRTIINRFCYGQCNSFYIPRHIRKEEGSFQSCSFCKPKKFTTMMVTLNCPELQPPTKKKRVTRVKQCRCISIDLD
modifications: N-glycosylated in part (glycosylated ~30–45%, non-glycosylated ~70–55% of the protein)
notes: gremlin-1, rat; secreted protein; the 0.8–0.9 M NaCl heparin-sepharose fractions hold the dimer; also called IMAC-purified gremlin; IMAC gremlin; source: HEK293T, transiently transfected, secreted into the supernatant; purified by IMAC (Ni2+ column), when indicated followed by heparin-sepharose chromatography; not shown: His6, C-terminal, kept
B2: 10xhis-tagged gremlin expressed in murine myeloma cells (recombinant human gremlin-1 purchased from R&D) (natural protein, UniProt O60565 25-184, looked up)
chain: B1 chain with P27Q, T33N
notes: gremlin-1, human; No catalogue number is printed; source: bought: R&D; expressed in murine myeloma cells, IMAC-purified

Legend:
[1] = molecular target: the molecule itself; experiment: non-reducing SDS-PAGE with anti-gremlin Western blot; IMAC-purified gremlin (250 mM imidazole eluate), SDS-PAGE without DTT; shows disulfide-bound dimer beside monomer
[2] = molecular target: the molecule itself; experiment: non-reducing SDS-PAGE; bought 10xHis-tagged gremlin from murine myeloma cells, several batches (Figure S1); SDS-PAGE under reducing or non-reducing conditions

Protein	dimer vs. monomer ratio [1] [%]	stoichiometry N [1]	stoichiometry N [2]
B1	~20	2	
B2			2
